Patent publication US20180172684A1

How the values were obtained:
[1] = target: P30 protein of Mycoplasma pneumoniae as present in Mycoplasma pneumoniae analytes (deactivated Mycoplasma pneumoniae Antigen (FH), Meridian; pharyngeal swabs of infected subjects) (Mycoplasma pneumoniae) (UniProt P75330); assay: immunochromatography sandwich (Ex. 1), label P30(a), detection P30(a); pharyngeal swab Subject 1, diluted 20 times
[2] = target: mycoplasma pneumonia P30 (purified protein P30Ag produced by expressing amino acids 96-274 with Escherichia coli) (Mycoplasma pneumoniae) (UniProt P75330); assay: ELISA, P30Ag coated at 4 ng/mL, antibody 5 ug/mL, anti-mouse IgG-peroxidase
[3] = target: P30 protein of Mycoplasma pneumoniae as present in Mycoplasma pneumoniae analytes (deactivated Mycoplasma pneumoniae Antigen (FH), Meridian; pharyngeal swabs of infected subjects) (Mycoplasma pneumoniae) (UniProt P75330); assay: immunochromatography sandwich (Ex. 1), label P30(a), detection P30(a); pharyngeal swab Subject 2, diluted 20 times
[4] = target: full-length protein mycoplasma pneumonia P30 (amino acids 1-274; SEQ ID NO: 1) (Mycoplasma pneumoniae) (UniProt P75330); assay: ELISA, full-length P30 coated, 5 ug/mL P30(a), no peptide (0 point of the peptide 1 series)
[5] = target: mycoplasma pneumonia P30 (purified protein P30Ag produced by expressing amino acids 96-274 with Escherichia coli) (Mycoplasma pneumoniae) (UniProt P75330); assay: immunochromatography sandwich, P30(a)-gold label and P30(a) detection line, P30Ag 10 pg/mL, no peptide
[6] = target: full-length protein mycoplasma pneumonia P30 (amino acids 1-274; SEQ ID NO: 1) (Mycoplasma pneumoniae) (UniProt P75330); assay: ELISA, full-length P30 coated, 5 ug/mL P30(a), no peptide (0 point of the peptide 2 series)
[7] = target: P30 protein of Mycoplasma pneumoniae as present in Mycoplasma pneumoniae analytes (deactivated Mycoplasma pneumoniae Antigen (FH), Meridian; pharyngeal swabs of infected subjects) (Mycoplasma pneumoniae) (UniProt P75330); assay: immunochromatography sandwich (Ex. 2), label P30(a), detection P30(a); pharyngeal swab Subject 1; Triton X-100/Tween 20 diluent
[8] = target: P30 protein of Mycoplasma pneumoniae as present in Mycoplasma pneumoniae analytes (deactivated Mycoplasma pneumoniae Antigen (FH), Meridian; pharyngeal swabs of infected subjects) (Mycoplasma pneumoniae) (UniProt P75330); assay: immunochromatography sandwich (Ex. 2), label P30(a), detection P30(a); pharyngeal swab Subject 2; Triton X-100/Tween 20 diluent
[9] = target: P30 protein of Mycoplasma pneumoniae as present in Mycoplasma pneumoniae analytes (deactivated Mycoplasma pneumoniae Antigen (FH), Meridian; pharyngeal swabs of infected subjects) (Mycoplasma pneumoniae) (UniProt P75330); assay: immunochromatography sandwich (Ex. 1), label P30(a), detection P30(a); deactivated Mycoplasma pneumoniae (FH); NP-40/MN-811 diluent
[10] = target: P30 protein of Mycoplasma pneumoniae as present in Mycoplasma pneumoniae analytes (deactivated Mycoplasma pneumoniae Antigen (FH), Meridian; pharyngeal swabs of infected subjects) (Mycoplasma pneumoniae) (UniProt P75330); assay: immunochromatography sandwich (Ex. 2), label P30(a), detection P30(a); deactivated Mycoplasma pneumoniae (FH); Triton X-100/Tween 20 diluent
[11] = target: mycoplasma pneumonia P30 (purified protein P30Ag produced by expressing amino acids 96-274 with Escherichia coli) (Mycoplasma pneumoniae) (UniProt P75330); assay: immunochromatography sandwich (Ex. 3), label P30(a), detection P30(a); analyte P30Ag; Triton X-100/Tween 20 diluent
[12] = target: antibody P30(a) (Fucal Research product Mp-P30-3-AB); assay: competitive inhibition ELISA, full-length P30 coated, 5 ug/mL P30(a) + peptide 2 at x40 the antibody concentration
[13] = target: antibody P30(b) (Fucal Research product Mp-P30-9-AB); assay: immunochromatography competition, 400 ng peptide 2 developed with P30Ag 10 pg/mL, P30(b) label and detection
[14] = target: antibody P30(a) (Fucal Research product Mp-P30-3-AB); assay: competitive inhibition ELISA, full-length P30 coated, 5 ug/mL P30(a) + peptide 2 at x640 the antibody concentration
[15] = target: antibody P30(b) (Fucal Research product Mp-P30-9-AB); assay: competitive inhibition ELISA, full-length P30 coated at 10 ng/mL, 5 ug/mL P30(b) + peptide 2 at 40 times the antibody amount
[16] = target: antibody P30(a) (Fucal Research product Mp-P30-3-AB); assay: competitive inhibition ELISA, full-length P30 coated, 5 ug/mL P30(a) + peptide 2 at x20 the antibody concentration
[17] = target: antibody P30(b) (Fucal Research product Mp-P30-9-AB); assay: competitive inhibition ELISA, full-length P30 coated, 5 ug/mL P30(b) + peptide 2 at x320 the antibody concentration
[18] = target: antibody P30(b) (Fucal Research product Mp-P30-9-AB); assay: competitive inhibition ELISA, full-length P30 coated, 5 ug/mL P30(b) + peptide 2 at x80 the antibody concentration
[19] = target: antibody P30(a) (Fucal Research product Mp-P30-3-AB); assay: competitive inhibition ELISA, full-length P30 coated, 5 ug/mL P30(a) + peptide 2 at x160 the antibody concentration
[20] = target: antibody P30(b) (Fucal Research product Mp-P30-9-AB); assay: competitive inhibition ELISA, full-length P30 coated, 5 ug/mL P30(b) + peptide 2 at x40 the antibody concentration
[21] = target: antibody P30(a) (Fucal Research product Mp-P30-3-AB); assay: competitive inhibition ELISA, full-length P30 coated, 5 ug/mL P30(a) + peptide 2 at x10 the antibody concentration
[22] = target: antibody P30(b) (Fucal Research product Mp-P30-9-AB); assay: competitive inhibition ELISA, full-length P30 coated, 5 ug/mL P30(b) + peptide 2 at x640 the antibody concentration
[23] = target: antibody P30(a) (Fucal Research product Mp-P30-3-AB); assay: competitive inhibition ELISA, full-length P30 coated, 5 ug/mL P30(a) + peptide 2 at x1 the antibody concentration
[24] = target: antibody P30(b) (Fucal Research product Mp-P30-9-AB); assay: competitive inhibition ELISA, full-length P30 coated, 5 ug/mL P30(b) + peptide 2 at x20 the antibody concentration
[25] = target: antibody P30(b) (Fucal Research product Mp-P30-9-AB); assay: competitive inhibition ELISA, full-length P30 coated, 5 ug/mL P30(b) + peptide 2 at x160 the antibody concentration
[26] = target: antibody P30(a) (Fucal Research product Mp-P30-3-AB); assay: competitive inhibition ELISA, full-length P30 coated, 5 ug/mL P30(a) + peptide 2 at x320 the antibody concentration
[27] = target: antibody P30(a) (Fucal Research product Mp-P30-3-AB); assay: competitive inhibition ELISA, full-length P30 coated, 5 ug/mL P30(a) + peptide 2 at x80 the antibody concentration
[28] = target: antibody P30(b) (Fucal Research product Mp-P30-9-AB); assay: competitive inhibition ELISA, full-length P30 coated, 5 ug/mL P30(b) + peptide 2 at x1 the antibody concentration
[29] = target: antibody P30(a) (Fucal Research product Mp-P30-3-AB); assay: immunochromatography competition, 400 ng peptide 2 developed with P30Ag 10 pg/mL, P30(a) label and detection
[30] = target: antibody P30(b) (Fucal Research product Mp-P30-9-AB); assay: competitive inhibition ELISA, full-length P30 coated, 5 ug/mL P30(b) + peptide 2 at x10 the antibody concentration
[31] = target: antibody P30(a) (Fucal Research product Mp-P30-3-AB); assay: competitive inhibition ELISA, full-length P30 coated at 4 ng/mL, 5 ug/mL P30(a) + peptide 2 at 40 times the antibody amount

Molecule: antibody P30(a) (Fucal Research product Mp-P30-3-AB)
- Color intensity (mAbs) [1]: 41.8 mAbs
- absorbance at 450 nm after subtracting the blank [2]: 0.403 Abs
- Color intensity (mAbs) [3]: 28.7 mAbs
- Color intensity (Abs) [4]: 0.411 Abs
- Color intensity after 15 min [5]: 251 mAbs
- Color intensity (Abs) [6]: 0.411 Abs
- Color intensity (mAbs) [7]: 117 mAbs
- Color intensity (mAbs) [8]: 51.7 mAbs
- Color intensity (mAbs) [9]: 273 mAbs
- Color intensity (mAbs) [10]: 490 mAbs
- Color intensity (mAbs) [11]: 180 mAbs

B1: Peptide 2 (SEQ ID NO: 7: …) (peptide)
peptide: PGMAPRPGFPPQPGMAPR
- Color intensity (Abs) [12]: 0.26 Abs
- Percentage reduction of color intensity (%) [12]: 37%
- Color intensity after 15 min [13]: 31.3 mAbs
- Color intensity (Abs) [14]: 0.18 Abs
- Percentage reduction of color intensity (%) [14]: 56%
- percentage reduction of absorbance [15]: 22%
- Color intensity (Abs) [16]: 0.29 Abs
- Percentage reduction of color intensity (%) [16]: 29%
- Color intensity (Abs) [17]: 0.11 Abs
- Percentage reduction of color intensity (%) [17]: 47%
- Color intensity (Abs) [18]: 0.133 Abs
- Percentage reduction of color intensity (%) [18]: 36%
- Color intensity (Abs) [19]: 0.172 Abs
- Percentage reduction of color intensity (%) [19]: 58%
- Color intensity (Abs) [20]: 0.163 Abs
- Percentage reduction of color intensity (%) [20]: 22%
- Color intensity (Abs) [21]: 0.341 Abs
- Percentage reduction of color intensity (%) [21]: 17%
- Color intensity (Abs) [22]: 0.114 Abs
- Percentage reduction of color intensity (%) [22]: 45%
- Color intensity (Abs) [23]: 0.401 Abs
- Percentage reduction of color intensity (%) [23]: 2%
- Color intensity (Abs) [24]: 0.186 Abs
- Percentage reduction of color intensity (%) [24]: 11%
- Color intensity (Abs) [25]: 0.125 Abs
- Percentage reduction of color intensity (%) [25]: 40%
- Color intensity (Abs) [26]: 0.16 Abs
- Percentage reduction of color intensity (%) [26]: 61%
- Color intensity (Abs) [27]: 0.199 Abs
- Percentage reduction of color intensity (%) [27]: 52%
- Color intensity (Abs) [28]: 0.199 Abs
- Percentage reduction of color intensity (%) [28]: 4%
- Color intensity after 15 min [29]: 96.7 mAbs
- Color intensity (Abs) [30]: 0.184 Abs
- Percentage reduction of color intensity (%) [30]: 12%
- percentage reduction of absorbance [31]: > 30%
